Reference: patent publication US20090053230A1 (Genentech, published 2009)

How the values were obtained:
mouse OX40L-Flag = molecular target: T1, mouse OX40L-Flag (mouse, UniProt P43488 51-198, limits assumed); assay: ELISA, plates coated with antibody, serial dilutions of mouse OX40L-Flag, biotinylated anti-Flag and streptavidin-HRP detection
T1 construct: not shown: Flag tag
T1 sequence (looked up): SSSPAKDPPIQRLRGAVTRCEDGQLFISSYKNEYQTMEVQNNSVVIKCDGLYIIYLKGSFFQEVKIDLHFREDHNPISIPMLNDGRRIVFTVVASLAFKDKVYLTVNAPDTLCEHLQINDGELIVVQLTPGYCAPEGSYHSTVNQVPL
Experimental: (§1) To determine whether Mabs 8E12 and 13G5 bound mouse OX40L, ELISA plates were coated with mouse OX40L. Serial dilutions of 8E12 or 13G5 (0.004-4 ug/ml) were added. Goat anti-mouse Fc-HRP was used for detection. No binding was observed. In a different format, ELISA plates were coated with 8E12 or 13G5. Serial dilutions of mouse OX40L-Flag were added. Biotinylated anti-Flag followed by streptavidin-HRP was used for detection. No binding was observed.

[1] = molecular target: T2, full-length human OX40L expressed on CHO cells (human, UniProt P23510 1-183); assay: competitive radioligand binding on OX40L-expressing CHO cells; antibody titrated against iodinated OX40-Fc (0.25 nM final), overnight at 4 C, gamma counting, 4-parameter fit
T2 construct: whole, on cells; also called CHO-OX40L cells; OX40L-expressing CHO cells
T2 sequence (looked up): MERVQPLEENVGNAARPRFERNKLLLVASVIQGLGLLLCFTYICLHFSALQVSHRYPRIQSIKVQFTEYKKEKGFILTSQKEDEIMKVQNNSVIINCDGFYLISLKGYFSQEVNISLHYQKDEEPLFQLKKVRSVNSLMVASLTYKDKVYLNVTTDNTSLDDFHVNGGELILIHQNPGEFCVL
Experimental: Competitive binding experiments were performed to determine if anti-OX40L mAbs 8E12 and 13G5 competed with iodinated OX40-Fc (extracellular domain of OX40 receptor fused to Fc domain) for binding to OX40L expressed on CHO cells. 50 ug of […] was iodinated using a standard lactoperoxidase method. Antibodies 8E12 and 13G5 were serially diluted 1:4 in media buffer (Dubeccos F12:DMEM, 1% bovine serum albumin, 0.05% sodium azide and 25 mM Hepes buffer pH 7.2) starting at an initial concentration of 200 nM. Dilutions (50 uL) were performed in duplicate in a 96 microwell plate. Each well received 50 uL of iodinated […] (0.25 nM final concentration), was mixed and then the entire mixture was transferred to a 96 well tissue culture plate containing 30,000 OX40L-expressing CHO cells per well, which had been plated out the previous day. The plates were covered and incubated overnight at 4° C. The next day the wells (containing cells) were aspirated and washed twice with media buffer. 200 uL of 1N NaOH was added to each well to lyse the cells, shaken for 10 minute, and then transferred to a 96 well microtube. Each tube was counted in a Wallac gamma scintillation counter. The data was collected and plotted using Kaleidagraph. Curves were drawn using a 4-parameter fit.

mouse OX40L = molecular target: T3, mouse OX40L (mouse, UniProt P43488 51-198, limits assumed); assay: ELISA, plates coated with mouse OX40L, goat anti-mouse Fc-HRP detection
T3 construct: Construct coated on the plate is not described
T3 sequence (looked up): T1 sequence (looked up)
Experimental: as §1

[2] = molecular target: T2, full-length human OX40L expressed on …; assay: cell-based competition ELISA on CHO cells expressing full-length human OX40L; competitor human OX40-IgG-bio, streptavidin-HRP
Experimental: (§2) In other experiments, CHO cells expressing full-length human OX40L were grown in 50:50 F12/DMEM medium supplemented with 2 mM L-glutamine, 100 units/ml penicillin, 100 ug/ml streptomycin (supplemented medium), and 5% FBS (Gibco BRL Life Technologies, Gaithersburg, Md.) (growth medium) in a humidified 5% CO₂ incubator at 37° C. Cells were detached from culture plates using Accutase (ICN) and added to 96 well microwell plates at 300,000 cells/well. A mixture of human OX40-IgG and serial dilutions of antibodies in growth medium was added to the plates. After a one-hour incubation on ice, cells were washed by centrifuging the plates and removing the supernatant. Bound human OX40-IgG was detected using anti-Fc-HRP. […] In some experiments, human OX40-IgG-bio was used instead of human OX40-IgG. Bound human OX40-IgG-bio was detected using streptavidin-HRP. Plates were developed and read as described above.

[3] = molecular target: T4, recombinant human OX40L-flag polypeptide (human OX40 ligand extracellular domain fused to the flag peptide) (human, UniProt P23510 51-183); assay: competition ELISA, coated human OX40-IgG as competitor, Flag-tagged OX40L (printed 'OX40-Flag') in solution with antibody dilutions; plate coated with OX40-IgG; Flag-tagged ligand in solution with antibody
T4 construct: extracellular domain; Expressed from CHO cells (Genentech); also called human OX40L ECD-Flag polypeptide; human OX40L in solution; not shown: flag peptide
T4 sequence (looked up): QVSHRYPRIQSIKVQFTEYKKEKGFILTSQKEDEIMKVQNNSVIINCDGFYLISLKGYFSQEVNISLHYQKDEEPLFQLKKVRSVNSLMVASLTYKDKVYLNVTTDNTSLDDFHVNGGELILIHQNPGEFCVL

[4] = molecular target: T4, recombinant human OX40L-flag …; assay: SPR (BIAcore 3000), OX40L-Flag captured by immobilised anti-Flag, IgG as analyte
Experimental: Binding kinetics of mouse anti-OX40L antibodies to human OX40L were measured by surface plasmon resonance using Pharmacia BIAcore® 3000 (BIAcore AB, Uppsala, Sweden) at room temperature (Karlsson et al., 1994; Morton & Myszka, 1998). Anti-Flag antibody (anti-FlagM2, Sigma, St. Louis, Mo.) was immobilized to the sensor chip (CM5) through primary amine groups. A high flow rate was used in order to minimize mass transport effects. The carboxymethylated sensor chip surface matrix was activated by injecting 20 ul of a mixture of 0.025 M N-hydroxysuccinimide and 0.1 M N-ethyl-N′(dimethylaminopropyl) carbodiimide at 5 ul/min. 7 ul of 50 ug/ml anti-Flag in 10 mM sodium acetate, pH 4.5, were injected at 5 ul/min twice. After coupling, unoccupied sites on the chip were blocked by injecting 20 ul of 1M ethanolamine, pH 8.5. The running buffer was PBS containing 0.05% polysorbate 20. 5 ul of 4 ug/ml OX40L-Flag were injected at 30 ul/min to bind […] to the anti-Flag on the chip. For kinetic measurements, two-fold serial dilutions (6.2-50 nM) of mouse […] 8E12 (PUR 9333) and 13G5 (PUR 9306) in running buffer were injected over flow cell for 2 minutes at a flow rate of 30 ul/min and the bound anti-OX40L antibody was allow to dissociate for 20 minutes. […] Data were analyzed using a 1:1 binding model using global fitting. […]

[5] = molecular target: T2, full-length human OX40L expressed on …; assay: cell-based competition ELISA on CHO cells expressing full-length human OX40L; competitor human OX40-IgG, anti-Fc-HRP
Experimental: as §2

[6] = molecular target: T4, recombinant human OX40L-flag …; assay: competition ELISA, OX40L ECD-Flag captured by anti-Flag; competitor human OX40-IgG-bio; OX40L ECD-Flag captured on anti-Flag plate; OX40-IgG-bio as competitor
Experimental: Competition ELISA analysis was conducted as follows to examine binding of anti-OX40L Mabs 8E12 and 13G5 to OX40L in solution, and to examine binding to cell-surface expressed OX40L. In some experiments, maxiSorp 96-well microwell plates (Nunc, Roskilde, Denmark) were coated overnight at 4° C. with 2 ug/ml anti-FlagM2 antibody (Sigma) in 50 mM carbonate buffer, pH 9.6. Plates were washed with PBS containing 0.05% polysorbate 20 and blocked with 0.5% bovine serum albumin, 10 ppm Proclin 300 (Supelco, Bellefonte, Pa.) in PBS at room temperature for 1 h. Plates were washed and 0.5 ug/ml of human OX40L ECD-Flag polypeptide was added. After a one-hour incubation, plates were washed. A mixture of human OX40-IgG-bio and serial dilutions of antibodies in PBS containing 0.5% bovine serum albumin, 0.05% polysorbate 20, 10 ppm Proclin 300 was added. The plates were incubated for 2 h at room temperature and washed. Bound human OX40-IgG-bio was detected by adding streptavidin-HRP (Amdex, Copenhagen, Denmark) followed by 3,3′,5,5′-tetramethyl benzidine (Kirkegaard & Perry Laboratories, Gaithersburg, Md.) as the substrate. […] Absorbance was read at 450 nm on a Titertek stacker reader (ICN, Costa Mesa, Calif.). The titration curves were fit using a four parameter regression curve fitting program (KaleidaGraph, Synergy software, Reading, Pa.). […]

[7] = molecular target: T2, full-length human OX40L expressed on …; assay: Scatchard analysis, iodinated antibody on OX40L-expressing CHO cells
Experimental: Scatchard binding experiments were performed to determine if anti-OX40L mAbs 8E12 and 13G5 compete with each other for binding similar or overlapping epitopes on CHO cells expressing human OX40L, and to determine the binding affinity of the antibodies. 50 ug of anti-OX40L murine monoclonal antibodies 8E12 and 13G5 were iodinated using a standard lactoperoxidase method. Antibodies 8E12 and 13G5 were serially diluted 1:4 in media buffer (Dubeccos F12:DMEM, 1% bovine serum albumin, 0.05% sodium azide and 25 mM Hepes buffer pH 7.2) starting at an initial concentration of 200 nM. Two sets of dilution series (50 uL) were performed in duplicate in a 96 microwell plate. Wells from each set of dilutions received 50 uL of either iodinated 8E12 or 13G5 (0.25 nM final concentration). The plate was mixed and then the entire mixture was transferred to a 96 well tissue culture plate containing 30,000 OX40L-expressing CHO cells per well which had been plated out the previous day. The plates were covered and incubated overnight at 4° C. The next day the wells (containing cells) were aspirated and washed twice with media buffer. 200 uL of 1N NaOH was added to each well to lyse the cells, shaken for 10 minute, and then transferred to a 96 well microtube. Each tube was counted in a Wallac gamma scintillation counter. […]

B1: mouse anti-human OX40L monoclonal antibody 8E12 (antibody, V domains shown)
VH: QVQLQQPGAELVRPGASVKLSCKASGYTFTSYWLNWVKQRPGQGLEWIVMIDPSDSETHYNQVFKDKATLTVDKSSSTAYMQLSSLTSEDSAVYYCIRGRGNFYGGSHAMEYWGQGTLLTVSS
VL: DILMTQTPLSLPVSLGDQASISCRSSQSIVHGNGNTYLEWHLQKPGQSPKLLIYRVSNRFSGVPDRFSGSGSGTDFTLKINRVEAEDLGVYYCFQGSHVPYTFGGGTKVEIKR
notes: Tested as mouse IgG purified from hybridoma medium by Protein A; also called Mab 8E12; anti-OX40L mab 8E12
- binding result (mouse OX40L-Flag): no binding
- IC50 (read off the curve) [1]: 2.5 to 3 nM
- binding result (mouse OX40L): no binding (tested: 0.004-4 ug/ml)
- EC50 [2]: ~11 nM
- EC50 [3]: ~1.9 nM
- koff [4]: < 5e-06 s⁻¹
- EC50 [5]: ~20 nM
- EC50 [6]: ~1.4 nM
- Kd [7]: 0.92 nM
